# Assay results taken from PMC9482650, “Quantitative fragmentomics allow affinity mapping of interactomes” (Nature Communications, 2022).
# T1: PARD3B_1, Q8TEW8
# T1 sequence (Q8TEW8 196-299, limits assumed, looked up): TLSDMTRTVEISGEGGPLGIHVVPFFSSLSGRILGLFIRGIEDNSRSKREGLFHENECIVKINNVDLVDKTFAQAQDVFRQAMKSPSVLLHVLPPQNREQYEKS
# T2: DLG3_3, Q92796
# T2 sequence (Q92796 374-475, limits assumed, looked up): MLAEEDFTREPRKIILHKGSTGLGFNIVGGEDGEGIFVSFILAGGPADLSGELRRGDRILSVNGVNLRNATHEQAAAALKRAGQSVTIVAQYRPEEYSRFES
# T3: RAPGEF6, Q8TEU7
# T3 sequence (Q8TEU7 525-625, limits assumed, looked up): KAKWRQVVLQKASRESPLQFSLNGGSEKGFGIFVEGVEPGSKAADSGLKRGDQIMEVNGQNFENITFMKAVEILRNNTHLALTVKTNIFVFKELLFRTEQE
# T4: HTRA3, P83110
# T4 sequence (P83110 354-453, limits assumed, looked up): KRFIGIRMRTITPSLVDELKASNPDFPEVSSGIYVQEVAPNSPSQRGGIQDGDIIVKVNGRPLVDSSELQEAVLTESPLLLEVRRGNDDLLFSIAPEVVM
# T5: GRIP1_2, Q9Y3R0
# T5 sequence (Q9Y3R0 145-248, limits assumed, looked up): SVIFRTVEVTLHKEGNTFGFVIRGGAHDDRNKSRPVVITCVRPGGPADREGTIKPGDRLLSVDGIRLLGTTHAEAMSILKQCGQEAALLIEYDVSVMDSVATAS
# T6: TX1BP3, O14907
# T6 sequence (O14907 10-122, limits assumed, looked up): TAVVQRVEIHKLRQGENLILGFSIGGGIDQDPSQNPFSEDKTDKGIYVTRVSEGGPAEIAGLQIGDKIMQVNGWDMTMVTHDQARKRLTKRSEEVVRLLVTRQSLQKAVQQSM
# T7: GRIP1_4, Q9Y3R0
# T7 sequence (Q9Y3R0 467-571, limits assumed, looked up): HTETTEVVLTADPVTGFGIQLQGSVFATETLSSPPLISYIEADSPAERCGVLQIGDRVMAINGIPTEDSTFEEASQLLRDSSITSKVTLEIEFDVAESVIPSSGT
# T8: MPP6, Q9NZW5
# T8 sequence (Q9NZW5 125-219, limits assumed, looked up): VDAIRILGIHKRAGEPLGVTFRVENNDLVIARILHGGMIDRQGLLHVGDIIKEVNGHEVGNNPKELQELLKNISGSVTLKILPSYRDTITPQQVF
# T9: PDZD7_3, Q9H5P4
# T9 sequence (Q9H5P4 857-944, limits assumed, looked up): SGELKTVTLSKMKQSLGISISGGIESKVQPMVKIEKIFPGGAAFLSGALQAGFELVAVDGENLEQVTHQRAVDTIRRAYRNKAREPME
# T10: HTRA4, P83105
# T10 sequence (P83105 378-476, limits assumed, looked up): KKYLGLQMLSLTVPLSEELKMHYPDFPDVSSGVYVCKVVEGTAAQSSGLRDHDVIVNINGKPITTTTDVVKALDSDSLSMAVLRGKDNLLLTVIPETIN
# T11: LNX2_3, Q8N448
# T11 sequence (Q8N448 463-564, limits assumed, looked up): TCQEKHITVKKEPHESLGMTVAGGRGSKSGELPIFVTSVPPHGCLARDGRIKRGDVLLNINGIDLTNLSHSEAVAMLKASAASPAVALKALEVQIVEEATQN
# T12: ARHGEF11, O15085
# T12 sequence (O15085 42-136, limits assumed, looked up): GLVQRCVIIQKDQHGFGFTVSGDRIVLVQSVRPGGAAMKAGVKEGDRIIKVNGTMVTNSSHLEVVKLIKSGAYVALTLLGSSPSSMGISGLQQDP
# B1: GRASP, Q7Z6J2 (peptide)
# chain: RSLEEEESQL
# B2: NF2, P35240 (peptide)
# chain: KSRVAFFEEL
# B3: HPV67-E6, A4U7F2 (peptide)
# chain: SRPQRTQTQV
# B4: LRP4, O75096 (peptide)
# chain: ERKLSSESQV
# Legend:
# Test in all cases: holdup assay
# Design in all cases: key: below the threshold = too weak to quantify, mostly under pKd 3.1 to 4
# PDZRN4_1, Q6ZMN7 = settings: plain residues with an end cap or a label only (N-terminal biotin on a linker: ttds)
# Sequence of PDZRN4_1, Q6ZMN7 (Q6ZMN7 213-318): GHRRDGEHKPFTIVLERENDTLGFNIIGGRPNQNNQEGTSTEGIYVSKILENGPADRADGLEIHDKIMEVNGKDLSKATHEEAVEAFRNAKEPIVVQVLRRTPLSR
# Inadl_4, Q8NI35 = settings: plain residues with an end cap or a label only (N-terminal biotin on a linker: ttds)
# Sequence of Inadl_4, Q8NI35 (Q8NI35 547-651): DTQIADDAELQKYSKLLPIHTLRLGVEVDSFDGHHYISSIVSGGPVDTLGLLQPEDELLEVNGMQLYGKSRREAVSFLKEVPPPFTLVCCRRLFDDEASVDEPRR
# DLG1_1, Q12959 = settings: plain residues with an end cap or a label only (N-terminal biotin on a linker: ttds)
# PTPN3, P26045 = settings: plain residues with an end cap or a label only (N-terminal biotin on a linker: ttds)
# Sequence of PTPN3, P26045 (P26045 505-587): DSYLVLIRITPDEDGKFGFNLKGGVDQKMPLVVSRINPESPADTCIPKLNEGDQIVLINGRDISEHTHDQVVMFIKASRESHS
# PARD3B_1, Q8TEW8 = biological target: T1, PARD3B_1, Q8TEW8
# DLG3_3, Q92796 = biological target: T2, DLG3_3, Q92796; settings: plain residues with an end cap or a label only (N-terminal biotin on a linker: ttds)
# MAGI1_1, Q96QZ7 = settings: plain residues with an end cap or a label only (N-terminal biotin on a linker: ttds)
# Sequence of MAGI1_1, Q96QZ7 (Q96QZ7 1-106): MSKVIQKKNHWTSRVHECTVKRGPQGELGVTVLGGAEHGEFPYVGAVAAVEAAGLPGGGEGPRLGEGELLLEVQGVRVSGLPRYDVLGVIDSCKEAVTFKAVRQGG
# RAPGEF6, Q8TEU7 = biological target: T3, RAPGEF6, Q8TEU7; settings: plain residues with an end cap or a label only (N-terminal biotin on a linker: ttds)
# HTRA3, P83110 = biological target: T4, HTRA3, P83110; settings: plain residues with an end cap or a label only (N-terminal biotin on a linker: ttds)
# MAST1, Q9Y2H9 = settings: plain residues with an end cap or a label only (N-terminal biotin on a linker: ttds)
# Sequence of MAST1, Q9Y2H9 (Q9Y2H9 962-1065): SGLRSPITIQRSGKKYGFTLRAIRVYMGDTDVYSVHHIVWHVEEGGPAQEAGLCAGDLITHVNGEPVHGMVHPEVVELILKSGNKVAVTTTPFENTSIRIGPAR
# GRIP1_2, Q9Y3R0 = biological target: T5, GRIP1_2, Q9Y3R0; settings: plain residues with an end cap or a label only (N-terminal biotin on a linker: ttds)
# NHERF2_2, Q15599 = biological target: NHERF2_2, Q15599
# Sequence of NHERF2_2, Q15599 (Q15599 142-238): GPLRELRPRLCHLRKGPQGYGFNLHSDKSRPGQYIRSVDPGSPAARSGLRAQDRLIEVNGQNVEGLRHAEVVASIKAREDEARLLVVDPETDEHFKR
# PARD3_3, Q8TEW0 = biological target: PARD3_3, Q8TEW0
# Sequence of PARD3_3, Q8TEW0 (Q8TEW0 582-685): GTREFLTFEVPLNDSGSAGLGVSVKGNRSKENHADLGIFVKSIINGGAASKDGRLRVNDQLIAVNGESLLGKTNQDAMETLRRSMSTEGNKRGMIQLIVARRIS
# TX1BP3, O14907 = biological target: T6, TX1BP3, O14907; settings: plain residues with an end cap or a label only (N-terminal biotin on a linker: ttds)
# GRIP1_4, Q9Y3R0 = biological target: T7, GRIP1_4, Q9Y3R0; settings: plain residues with an end cap or a label only (N-terminal biotin on a linker: ttds)
# MPP6, Q9NZW5 = biological target: T8, MPP6, Q9NZW5; settings: plain residues with an end cap or a label only (N-terminal biotin on a linker: ttds)
# SCRIB_3, Q14160 = biological target: SCRIB_3, Q14160
# Sequence of SCRIB_3, Q14160 (Q14160 999-1103): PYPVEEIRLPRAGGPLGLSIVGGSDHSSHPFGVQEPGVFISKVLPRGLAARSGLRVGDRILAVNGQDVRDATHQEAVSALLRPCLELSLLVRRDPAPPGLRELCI
# GRIP2_3, Q9C0E4 = settings: plain residues with an end cap or a label only (N-terminal biotin on a linker: ttds)
# Sequence of GRIP2_3, Q9C0E4 (Q9C0E4 238-339): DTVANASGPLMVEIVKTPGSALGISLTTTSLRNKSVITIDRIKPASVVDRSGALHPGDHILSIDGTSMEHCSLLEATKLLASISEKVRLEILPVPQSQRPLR
# LIMK2, P53671 = settings: plain residues with an end cap or a label only (N-terminal biotin on a linker: ttds)
# Sequence of LIMK2, P53671 (P53671 143-248): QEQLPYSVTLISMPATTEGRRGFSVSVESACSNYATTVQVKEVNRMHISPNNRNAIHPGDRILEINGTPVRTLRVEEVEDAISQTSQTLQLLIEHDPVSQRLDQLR
# Inadl_9, Q8NI35 = settings: plain residues with an end cap or a label only (N-terminal biotin on a linker: ttds)
# Sequence of Inadl_9, Q8NI35 (Q8NI35 1530-1615): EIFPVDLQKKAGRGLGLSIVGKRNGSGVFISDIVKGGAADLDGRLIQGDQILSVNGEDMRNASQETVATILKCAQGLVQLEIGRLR
# PDZD7_3, Q9H5P4 = biological target: T9, PDZD7_3, Q9H5P4; settings: plain residues with an end cap or a label only (N-terminal biotin on a linker: ttds)
# HTRA4, P83105 = biological target: T10, HTRA4, P83105; settings: plain residues with an end cap or a label only (N-terminal biotin on a linker: ttds)
# CASK, O14936 = settings: plain residues with an end cap or a label only (N-terminal biotin on a linker: ttds)
# Sequence of CASK, O14936 (O14936 487-570): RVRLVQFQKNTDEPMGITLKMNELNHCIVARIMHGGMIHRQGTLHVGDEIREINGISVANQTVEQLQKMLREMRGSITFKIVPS
# LNX2_3, Q8N448 = biological target: T11, LNX2_3, Q8N448; settings: plain residues with an end cap or a label only (N-terminal biotin on a linker: ttds)
# Inadl_10, Q8NI35 = settings: plain residues with an end cap or a label only (N-terminal biotin on a linker: ttds)
# Sequence of Inadl_10, Q8NI35 (Q8NI35 1673-1763): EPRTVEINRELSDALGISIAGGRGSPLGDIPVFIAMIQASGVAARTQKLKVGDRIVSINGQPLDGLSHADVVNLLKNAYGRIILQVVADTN
# ARHGEF11, O15085 = biological target: T12, ARHGEF11, O15085; settings: plain residues with an end cap or a label only (N-terminal biotin on a linker: ttds)
# [1] = plain residues with an end cap or a label only (N-terminal biotin on a linker: ttds)
# [2] = plain residues with an end cap or a label only (N-terminal biotin on a linker: ado-ado)
Binder,"pKd (PDZRN4_1, Q6ZMN7)","pKd (Inadl_4, Q8NI35)","pKd (DLG1_1, Q12959)","pKd (PTPN3, P26045)","pKd (PARD3B_1, Q8TEW8; [1])","pKd (DLG3_3, Q92796)","pKd (MAGI1_1, Q96QZ7)","pKd (RAPGEF6, Q8TEU7)","pKd (HTRA3, P83110)","pKd (MAST1, Q9Y2H9)","pKd (GRIP1_2, Q9Y3R0)","pKd (NHERF2_2, Q15599; [1])","pKd (PARD3_3, Q8TEW0; [1])","pKd (TX1BP3, O14907)","pKd (GRIP1_4, Q9Y3R0)","pKd (MPP6, Q9NZW5)","pKd (SCRIB_3, Q14160; [1])","pKd (GRIP2_3, Q9C0E4)","pKd (LIMK2, P53671)","pKd (Inadl_9, Q8NI35)",also measured
B1,4.17,3.83,below the threshold,4.83,4.28,3.81,below the threshold,3.56,below the threshold,4.83,below the threshold,5.07,4.13,3.84,3.5,3.53,4.23,below the threshold,below the threshold,below the threshold,"pKd (PDZD7_3, Q9H5P4): 3.98; pKd (HTRA4, P83105): below the threshold; pKd (CASK, O14936): below the threshold; pKd (LNX2_3, Q8N448): below the threshold; pKd (Inadl_10, Q8NI35): below the threshold; pKd (ARHGEF11, O15085): 3.78"
B2,,,,,,,,,,,,,,,,,,,,,"pKd (PARD3B_1, Q8TEW8; [2]): 3.83; pKd (NHERF2_2, Q15599; [2]): 3.89; pKd (PARD3_3, Q8TEW0; [2]): 3.72; pKd (SCRIB_3, Q14160; [2]): 3.7"
B3,3.82,below the threshold,4.52,3.95,below the threshold,4.3,below the threshold,below the threshold,below the threshold,4.47,below the threshold,below the threshold,below the threshold,4.03,below the threshold,below the threshold,3.93,below the threshold,below the threshold,below the threshold,"pKd (PDZD7_3, Q9H5P4): 3.65; pKd (HTRA4, P83105): below the threshold; pKd (CASK, O14936): below the threshold; pKd (LNX2_3, Q8N448): below the threshold; pKd (Inadl_10, Q8NI35): below the threshold; pKd (ARHGEF11, O15085): 4.05"
B4,below the threshold,below the threshold,3.82,4.61,below the threshold,3.51,below the threshold,below the threshold,below the threshold,below the threshold,3.7,below the threshold,below the threshold,4.27,below the threshold,below the threshold,3.93,below the threshold,below the threshold,below the threshold,"pKd (PDZD7_3, Q9H5P4): below the threshold; pKd (HTRA4, P83105): below the threshold; pKd (CASK, O14936): below the threshold; pKd (LNX2_3, Q8N448): below the threshold; pKd (Inadl_10, Q8NI35): below the threshold; pKd (ARHGEF11, O15085): below the threshold"
